# Assay results reported in a protein production outcome set (Wang et al. 2014).
# Test: label from the status in PepcDB records
row,Sequence,protein production
1,METMFDTLLQLPLFQGLCHEDFTSILDKVKLHFIKHKAGETIIKSGNPCTQLCFLLKGEISIVTNAKENIYTVIEQIEAPYLIEPQSLFGMNTNYASSYVAHTEVHTVCISKAFVLSDLFRYDIFRLNYMNIVSNRAQNLYSRLWDEPTLDLKSKIIRFFLSHCEKPQGEKTFKVKMDDLARCLDDTRLNISKTLNELQDNGLIELHRKEILIPDAQKLL,not failed
2,METTPVTSCTIIDATDRSIRQTLGETSTLARLIWVDAGLASPPLCSGLARCGRCRVRITEAAPAPHEDDREFFSAEDISAGWRLACRHAPAHGMVVHVPLPVMPHRHASRPKHPGPFRLAVDLGTTSLQWSLLAPDGTVAAQGSETNPQMGAGSDVMSRIAMARSDKGRGRLRELVLQALRRIVADVEGTPATADAVPPAGSGDEPTTACGYESRVEELCVAGNTAMTAILADESVEGLASAPYRLEMRGGTALALPGLPPAWIPPLPAPFVGGDLSAGYLAVLTDHAPAFPFVLADLGTNGEFVLALSPERTLVTSVALGPALEGIGLTFGTVAQRGAITSFTLTPGGLVPYVLDGGEADGISGTGYISLVHALLRAGLLDVDGRFIQSPSSPLAARMARSIVSHRGEPCLPLARGLYLAARDIEEILKVKAAFSLAFERLLATAQMPSHALSGIHLAGALGQHALPADLEGLGFIPPGSGGRTRAVGNTSLRGAELLLTSPPLRDTLNTWREGCTVVDLTAAPDFSAAFLRHMHFHFLEHHHHHH,failed
3,METTQKDELSSFLSVLPPVDFCCVYGSTLHPNNQDKSKMVDYILGVSDPIKWHSANLKMNSDHYASWMVHLGGARLITNVADKVGVGVHFNPFVNWNDRKLKYGVVRMHDLVQDILDWKRFYLSGRLQKPVHMLVDNLDIEDVNSVNKRAAISAALLLLPSKFTEEDLYAKICSLSYMGDLRMFFAEDTNKVNKIVKGQFDLFQSMYKPFLEECETKNLLRFSSAEASHTKLVQDSSLSATRSLVSSLPASVRSQMGKSLGEKKFVSETGRVMGEVCISSREEAAKCMEKVMRRRVMVSSGRQAVSGFLAAGAINATMYLSQKMRKAWNSRA,failed
4,METYDVLVVGGGPGGSTAARYAAKYGLKTLMIEKRPEIGSPVRCGEGLSKGILNEADIKADRSFIANEVKGARIYGPSEKRPIILQSEKAGNEVGYVLERDKFDKHLAALAAKAGADVWVKSPALGVIKENGKVAGAKIRHNNEIVDVRAKMVIAADGFESEFGRWAGLKSVILARNDIISALQYRMINVDVDPDYTDFYLGSIAPAGYIWVFPKGEGMANVGIGSSINWIHNRFELKNYLDRFIENHPGLKKGQDIQLVTGGVSVSKVKMPITMPGLMLVGDAARLIDPITGGGIANAIVSGMYAAQVTKEAIESNDYSPQMMQKYEKLIKERFERKHLRNWVAKEKLAMLSDDTLDKLVDIVSEQVLTTISVEAILKAIAEKYPEVVKELEDLI,not failed
5,METYPITVGGVTRHVPLIEPLPGRRIPLVEFLGDPEFTRAAAEALRPLVPKEAEILFTTETSPIPLTHVLAEALGLPYVVARRRRRPYMEDPIIQEVQTLTLGVGEVLWLDRRFAEKLLNQRVVLVSDVVASGETMRAMEKMVLRAGGHVVARLAVFRQGTPGLAVDTVAELPVL,not failed
6,MEVARGLEGVLFTESRMCYIDGQQGKLYYYGIPIQELAEKSSFEETTFLLLHGRLPRRQELEEFSAALARRRALPAHLLESFKRYPVSAHPMSFLRTAVSEFGMLDPTEGDISREALYEKGLDLIAKFATIVAANKRLKEGKEPIPPREDLSHAANFLYMANGVEPSPEQARLMDAALILHAEHGFNASTFTAIAAFSTETDLYSAITAAVASLKGPRHGGANEAVMRMIQEIGTPERAREWVREKLAKKERIMGMGHRVYKAFDPRAGVLEKLARLVAEKHGHSKEYQILKIVEEEAGKVLNPRGIYPNVDFYSGVVYSDLGFSLEFFTPIFAVARISGWVGHILEYQELDNRLLRPGAKYVGELDVPYVPLEARE,not failed
7,MEVAVEKAVAAAAAASAAASGGPSAAPSGENEAESRQGPDSERGGEAARLNLLDTCAVCHQNIQSRAPKLLPCLHSFCQRCLPAPQRYLMLPAPMLGSAETPPPVPAPGSPVSGSSPFATQVGVIRCPVCSQECAERHIIDNFFVKDTTEVPSSTVEKSNQVCTSCEDNAEANGFCVECVEWLCKTCIRAHQRVKFTKDHTVRQKEEVSPEAVGVTSQRPVFCPFHKKEQLKLYCETCDKLTCRDCQLLEHKEHRYQFIEEAFQNQKVIIDTLITKLMEKTKYIKFTGNQIQNRIIEVNQNQKQVEQDIKVAIFTLMVEINKKGKALLHQLESLAKDHRMKLMQQQQEVAGLSKQLEHVMHFSKWAVSSGSSTALLYSKRLITYRLRHLLRARCDASPVTNNTIQFHCDPSFWAQNIINLGSLVIEDKESQPQMPKQNPVVEQNSQPPSGLSSNQLSKFPTQISLAQLRLQHMQQQVMAQRQQVQRRPAPVGLPNPRMQGPIQQPSISHQQPPPRLINFQNHSPKPNGPVLPPHPQQLRYPPNQNIPRQAIKPNPLQMAFLAQQAIKQWQISSGQGTPSTTNSTSSTPSSPTITSAAGYDGKAFGSPMIDLSSPVGGSYNLPSLPDIDCSSTIMLDNIVRKDTNIDHGQPRPPSNRTVQSPNSSVPSPGLAGPVTMTSVHPPIRSPSASSVGSRGSSGSSSKPAGADSTHKVPVVMLEPIRIKQENSGPPENYDFPVVIVKQESDEESRPQNANYPRSILTSLLLNSSQSSTSEETVLRSDAPDSTGDQPGLHQDNSSNGKSEWLDPSQKSPLHVGETRKEDDPNEDWCAVCQNGGELLCCEKCPKVFHLSCHVPTLTNFPSGEWICTFCRDLSKPEVEYDCDAPSHNSEKKKTEGLVKLTPIDKRKCERLLLFLYCHEMSLAFQDPVPLTVPDYYKIIKNPMDLSTIKKRLQEDYSMYSKPEDFVADFRLIFQNCAEFNEPDSEVANAGIKLENYFEELLKNLYPEKRFPKPEFRNESEDNKFSDDSDDDFVQPRKKRLKSIEERQLLK,not failed
8,MEVDEDIELQKHQEQQSRKLQRFSEDNTGLMRNWNNPSSRIIRVSRASGGKDRHSKVLTSKGLRDRRIRLSVATAIQFYDLQDRLGFDQPSKAVEWLINAASDSITDLPLLNTNFDHLDQNQNQTKSACSSGTSESSLLSLSRTEIRGKARERARERTAKDRDKDLQNAHSSFTQLLTGGFDQQPSNRNWTGGSDCFNPVQLQIPNSSSQEPMNHPFSFVPDYNFGISSSSSAINGGYSSRGTLQSNSQSLFLNNNNNITQRSSISSSSSSSSPMDSQSISFFMATPPPLDHHNHQLPETFDGRLYLYYGEGNRSSDDKAKERR,failed
9,MEVDLSGFNIDAPRWDQCTFLGRVKHFFNITDPRTVFVSEQELDWAKSVVEKSRMGLMPPGTQVEQLLYAKKLYDSAFHPDTGEKMNVIGRMSFQVPGGMIITGFMLQFYRTMPAVVFWQWVNQSFNALVNYTNRNAVSPTSVR,failed
10,MEVERLSLKEFCDMVAERKPTPGGGAVGSVVGAMACALAEMVANFTRKKKGYEDVEPEMERIVEAMEEARLKLFDLAKKDMEAFEKVMKAYKSSEGELQNALKEAASVPMDVIRVMKDLAHELEKLAEFGNKNLASDTLNAADLCHAVFQVEKVNVLINLKEISDETFRKNMLEELEEQEAQIEGCYQRVKKMLEGIVWSSK,not failed
11,MEVIREQEFVNQYHYDARNLEWEEENGTPKTNFEVTFQLANRDEAAKVTSIVAVLQFVIVRDEFVISGVISQMAHIQGRLINEPSEFSQDEVENLAAPLLEIVKRLTYEVTEIALDRPGVTLEFNS,not failed
12,MEVKMPFVVFVKRSVRFPGKHSYMIGGKSLLEIIVSKLSNIGKVYVFTKDKDIICNGCSIEFDTTNGIITDSVLAAIDKFGTFFAVAGDMPLIKPELVSKMLSQYKGSPLFPRHMDGMLEPLFGIYTEDLYNALKEYLDKGGESLHAFLLTQPLQYYDIGSDDEVNFININYKSDIEKYRDLLVQLLEHHHHHH,not failed
13,MEVKYLKDSEFLVLLLITTFVVITNVYFIAWDDSPQSWDPALHLTYSFVYFNLIKSLQFSEIVKVSNYYPPFFYLSSTPLYFLFGFSEDIAILTNLIYYFILIYSVFQIAKIMKDRNAGVISAVIISAFPALIKFQRVYMIDFALLSLTAFAILLYLRSEDFRNLKYSVLFGIVFGIAELTKWNAFVYIIPSIFALFLVNYFMRCPYCHQIVKNGWKVGYRRFCSKKHLKLYEKSAKTNNTMLNFAISLFVAFLFAAWWYLPNLSTVIMRLTYFANIGGKEGDPAFLTIQGWIYYANSILDAVGAVFLILFAVSIYYLYKNNRYLFLGLLTPIALIYIILTLLSNKDPRYIMPVLPFVAISIGVFVSSLANRKYSTILTFIILLFGLLNISALTFGQPDIDNKILPNPEHPKKEDWKIYALLEAIKESGGEGKIVVVLPDHPYLNGQSLNFYRLKEGYKFAIYNGVYIGYEAFVHNFDKITYIILIEPREHKGVYGDIEKKLYEFFYERKDNFEVVKVFDLPDNSKLYIYKRT,failed
14,MEVMRGVRVIEGMNGGRFPYCNVVVVGDVVIDAGAGLEVMRKVNASLLVLSHLHPDHSSGAWLFKDVLAPAEGRITLDTLARRFVAPDLVESWKRFISAATGLREFECERYEEGVVVKEPEIVAVPVKGHTMDHHVFLIEQKVLFGADVDLTSFGPFYGNPEADPYLFEREMDKLLDIDFEIFVSAHSKPVFGKEEAEGRILEFKRKIKEREEIILSLLEEPKSLDELVELSPIYGRKPYAKEILDFFERVMIEKHIEKLEMEGRVRKEDGKYVRV,failed
15,MEVPMDCPGCENKVRKALEKMNGVHDVQIDIKQQRVTVTGSAEQKKVLKVARNVTKRDICLWSYPYHPESNGYNDRYFKKKFRKRINMSVNGEKVSSYNYHKHGYHGHEHGYYQERPYSGLINPSASSMFSEENPHFCSIM,failed
16,MEVRGYKTEVALGKSSNSLLAGGLERRWQRLSGGCLGLLLMLPAVAAAAVYVPNAGQAMRDIQATQPALPEQPAPELDLPAKPPSAPAQAPDTSGIRLQVNDFVIVGNQVFSNETLQALLADLKGQELDLNQLRAAAERLTTYYQNQGYMLARAFLPAQDIEDGVVRIEVMEGRYGRIQVNNQSRALNSVITGPLSSLHSDTAVRSEDLERSLLLLSDLPGVRVKGTLSAGEQRGTTDLLVNAQPGPWASGTLEADNFGGYYTGEYRLGGSLNLNNPLRLGDQFNLRLLGSDEDQRYYRAAYKLPLGPWSTSVGVAYSRMNYELSRDFEVLEAHGQASIGSVFITQPLIRSRTFDLSAQLQYEDKRLRDDIDLFEVSSQKHVELWSLSLNGNSQDSLLGGGQNFFYLTYGSGRLSIDDPMDQWRDHFTAGTNGGFQKLNLNAARLQYLSPRFQLYGQFNGQWSSTNLDSSEKFGIGGPFDVRAYPQGTSSGDQGWQASLELRFLLAPRWQLKAFVDHGAVQVNKSPWIHDENRRQLSGAGVGASWSGPSQQISVTSAWALDNNQEGSGPERTPRIWASATQYF,failed
17,MEVSKIRIHDLPEEERPRERLIKNGPESLSNAELLGIVLRTGSREENVISLCSRILMEYNIKQLSLANVSKLMQVNGIGKAKAAQIAAVFELARRLETFVEEPKRKISSPKDVYTLMYPKMREQKKEKFITLYLDTKNQILKEEVVSIGSLNASIVHPREVFKSALMESSASVIMVHNHPSGDPSPSREDIMVTEKLVEGGKLLGIDILDHIIIGDGRYVSLKDEGFVK,not failed
18,MEVSSFSTVPRYCNSRSFVPELSRFRGFKVHLWDQSLVPLHFSIRKRKNTPRYLISCSQKKDVTVVDGSCMDEIYDKLAERLVPTAAAMFSPNLKRLVGLAGPPGAGKSTVANEVVRRVNKLWPQKAASFDAEVNPPDVAIVLPMDGFHLYRSQLDAMEDPKEAHARRGAPWTFDPALLLNCLKKLKNEGSVYVPSFDHGVGDPVEDDIFVSLQHKVVIVEGNYILLEEGSWKDISDMFDEKWFIDVNLDTAMQRVENRHISTGKPPDVAKWRVDYNDRPNAELIIKSKTNADLLIRSMNI,failed
